Measurements from US20110086768A1.

Target: FLAG-transferrin fusion (pREX1235): modified transferrin (mTf) with a FLAG Tag at the N-terminus and the human GPI sequence at the C-terminus, expressed in HEK-293 cells (human) (UniProt P02787)
Assay: FACS of transfected HEK-293 cells with mouse anti-FLAG BioM2 and goat anti-mouse-APC

Chain of UniProt P02787 (P02787 other isoform, or with tags, fused parts or gaps limits assumed): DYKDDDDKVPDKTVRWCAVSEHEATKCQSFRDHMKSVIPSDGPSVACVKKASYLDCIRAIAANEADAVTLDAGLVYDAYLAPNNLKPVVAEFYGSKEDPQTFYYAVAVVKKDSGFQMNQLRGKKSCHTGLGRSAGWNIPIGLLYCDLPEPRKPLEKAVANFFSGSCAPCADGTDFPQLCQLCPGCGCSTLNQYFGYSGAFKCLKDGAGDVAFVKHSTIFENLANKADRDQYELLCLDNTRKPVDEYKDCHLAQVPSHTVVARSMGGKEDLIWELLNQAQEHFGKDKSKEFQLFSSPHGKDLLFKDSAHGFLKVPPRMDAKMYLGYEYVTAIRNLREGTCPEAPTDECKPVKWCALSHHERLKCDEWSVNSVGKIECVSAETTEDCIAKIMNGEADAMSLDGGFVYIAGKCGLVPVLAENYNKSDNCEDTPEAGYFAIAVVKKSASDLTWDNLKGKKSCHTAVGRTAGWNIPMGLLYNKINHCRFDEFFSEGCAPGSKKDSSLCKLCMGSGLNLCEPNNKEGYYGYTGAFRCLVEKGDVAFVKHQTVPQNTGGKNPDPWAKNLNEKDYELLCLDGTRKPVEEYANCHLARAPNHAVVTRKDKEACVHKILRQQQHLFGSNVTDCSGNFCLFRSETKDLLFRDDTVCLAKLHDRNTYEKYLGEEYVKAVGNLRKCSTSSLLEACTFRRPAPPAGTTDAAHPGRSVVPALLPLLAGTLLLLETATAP

fold increase in staining relative to mock-transfected cells: 4 fold
Substance: mouse anti-FLAG BioM2 (Sigma) (antibody)
